{
  "source": "paper PMC5700813",
  "about": "“A recombinant BBSome core complex and how it interacts with ciliary cargo” (eLife, 2017)",
  "assay": "Solubility of purified core BBSome",
  "type": "physicochemical",
  "conditions": "purified 6mer core BBSome",
  "description": "The 6mer core BBSome could readily be purified in milligram quantities, and is soluble up to concentrations higher than 150 µM (>50 mg/ml). A single Strep affinity purification yielded almost pure complex with no obvious imbalance in the stoichiometry of components. The complex eluted as a single entity in all subsequent purification steps (Figure 1—figure supplement 3E), and was even resistant to high salt washes of up to 2.5 M NaCl, consistent with a previous study where the native BBSome was eluted with high salt concentrations from an Arl6 affinity column ([Jin et al., 2010]). The complex elutes in gel filtration with an apparent molecular weight of ~400 kDa, in acceptable agreement with the expected theoretical mass of 336.4 kDa (Figure 1—figure supplement 3C,D), but less consistent with it being a dimer.",
  "note": "Several values for one entry are separate records, joined by “and”; a condition that tells them apart may be missing. Equal values may be shown once.",
  "data": [
    {"substance": "6mer core BBSome: recombinant human subcomplex composed of BBS1, 4, 5, 8, 9 and 18", "values": [
      {"measurement": "soluble up to concentration", "value": "higher than 150 µM and > 50 mg/ml"}
    ]}
  ]
}
